Measurements published in patent US20110282033A1 (Ablynx, published 2011).

Tests used:
[1] = target: T1, Recombinant human PDGFRβ/Fc chimera (R&D Systems Cat #385 PR) (human, UniProt P09619 33-532); assay: ELISA ligand competition with PDGFRβ-Fc and coated PDGF-BB (FIG. 5)
T1 construct: extracellular domain; Bought reagent; also called PDGFRP-Fc; not shown: Fc part of the bought chimera (captured and detected with anti-human IgG)
Experimental: Clones tested in the PDGFRβ binding assay were also screened for their ability to block PDGF-BB binding to PDGFRβ-Fc. For this, Nanobody containing periplasmic extracts, or selected purified Nanobodies, were used in an ELISA-based ligand competition setup. In short, 1.0 ug/ml (80 nM) recombinant human PDGF-BB (R&D Systems #220-BB) was coated in 96 well Maxisorp microtiter plates (Nunc) and blocked with 4% Marvel skimmed milk in PBS. In parallel, 1 ug/ml (12 nM) PDGFRβ-Fc chimera was incubated with periplasmic extracts or purified Nanobody. After 1 hour, the receptor-Nanobody pre-mixes were incubated 1 hour with the coated ligand. Bound PDGFRβ-Fc was detected using HRP-conjugated goat anti-human IgG (Jackson Immunoresearch, Cat #109-035-098). Blocking activity was determined as loss of OD signal, as compared to wells where no Nanobodies, or irrelevant Nb, had been added.

[2] = target: dimeric VEGFR1/Fc chimera (R&D Systems Cat #321-FL) (UniProt P17948); assay: competition ELISA: VEGFR1-Fc (0.1 ug/ml) pre-mixed with Nanobody, binding to coated VEGF165 (0.2 ug/ml), detection with HRP anti-human IgG
[3] = target: T2, Recombinant human FGFR4/Fc chimera (R&D Systems Cat #685 FR) (human, UniProt P22455 22-369); assay: competition ELISA: FGFR4-Fc with heparin and MgCl2 pre-mixed with Nanobody, binding to coated acidic FGF (129 nM), detection with HRP anti-human IgG
T2 construct: extracellular domain; Bought reagent; also called Fc-FGFR4; not shown: Fc part of the bought chimera (detected with anti-human IgG)
T2 sequence (looked up): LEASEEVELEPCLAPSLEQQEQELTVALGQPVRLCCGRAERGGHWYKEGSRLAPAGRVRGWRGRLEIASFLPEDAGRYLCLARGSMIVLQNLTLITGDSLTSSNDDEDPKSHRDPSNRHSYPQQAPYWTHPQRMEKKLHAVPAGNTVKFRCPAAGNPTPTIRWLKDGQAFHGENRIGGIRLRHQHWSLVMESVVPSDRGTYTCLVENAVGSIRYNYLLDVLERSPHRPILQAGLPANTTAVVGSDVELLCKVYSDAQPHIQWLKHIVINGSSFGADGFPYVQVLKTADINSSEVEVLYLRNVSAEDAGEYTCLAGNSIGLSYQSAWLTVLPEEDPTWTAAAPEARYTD
Experimental: Clones tested in the FGFR4 binding assay were also screened for their ability to block acidic FGF binding to FGFR4-Fc. For this, purified Nanobodies, were used in an ELISA-based ligand competition setup. In short, 2.0 ug/ml (129 nM) human FGF (R&D Systems Cat #232-FA/CF) was coated in 96 well Maxisorp microtiter plates (Nunc) and blocked with 4% Marvel skimmed milk in PBS. In parallel, 0.25 ug/ml (1.9 nM) FGFR4-Fc chimera plus 2.5 μg/ml heparin and 10 mM MgCl₂ were incubated with periplasmic extracts or purified Nanobody. After 1 hour, the receptor-Nanobody pre-mixes were incubated 1 hour with the coated ligand. Bound FGFR4-Fc was detected using HRP-conjugated goat anti-human IgG (Jackson Immunoresearch, Cat #109-035-098). Blocking activity was determined as loss of OD signal, as compared to wells where irrelevant Nanobody had been added. […] Ligand is coated at 129 nM and receptor is added at […].

[4] = target: T2, Recombinant human FGFR4/Fc chimera (R&D …); assay: ELISA: periplasmic extract on coated FGFR4-Fc (500 ng/ml)
Experimental: In order to determine binding specificity to FGFR4, the clones were tested in an ELISA binding assay setup, using the monoclonal […]. Shortly, 500 ng/ml of Fc-FGFR4 (R&D Systems Cat #685 FR) was coated on Maxisorp ELISA plates (Nunc) and free binding sites were blocked using 4% Marvel skimmed milk in PBS. After a wash step with PBS, 10 ul of periplasmic extract from the monoclonal inductions of the different clones in 100 ul 2% Marvel PBS were allowed to bind to the FGFR4-Fc. […] 53-G3 was used as a reference since it was selected against PDGFRβ-Fc.

[5] = target: T1, Recombinant human PDGFRβ/Fc chimera …; assay: phage ELISA on PDGFRβ-Fc (0.1 ug/ml) captured by coated anti-human IgG, detection with HRP anti-M13
Experimental: In order to determine binding specificity to PDGFRβ-Fc, the clones were tested in an ELISA binding assay setup, using the monoclonal phage pools. Shortly, 1 ug/ml of Fc-capturing Ab (Rabbit anti-human IgG, DAKO # A423) was coated on Maxisorp ELISA plates (Nunc) and free binding sites were blocked using 4% Marvel skimmed milk in PBS. Next, 0.1 ug/ml receptor in 2% Marvel/PBS was captured. After a wash step with PBS, 10 ul of supernatant from the monoclonal phage inductions of the different clones in 100 ul 2% Marvel PBS were allowed to bind to the captured PDGFRP-Fc. […] Binding specificity was determined based on OD values compared to controls having received no phage.

PDGFRb on HeLa cells = target: T3, PDGFRb on HeLa cells (human, UniProt P09619 33-1106); assay: immunofluorescence on HeLa cells, 40 nM Nanobody, detection with mouse anti-myc and goat anti-mouse Alexa 488; PDGFR co-stained with a commercial antibody
T3 construct: whole, on cells; HeLa cells were not transfected
Experimental: 40 nM of nanobody was added in medium and incubated 30 minutes at room temperature. Cells were put on ice to stop internalization and washed 3 times with ice-cold PBS. Cells were fixed by incubation for 30 minutes with 4% PFA at room temperature. After washing with PBS amine groups were blocked by incubation for 10 min. with 100 mM glycin in PBS at room temperature. After washing cells were permeabilized by incubation for 5 min. with 0.2% TritonX-100 in PBS at room temperature.
Cells were blocked by incubation in 2% Marvell/PBS for 15 minutes. Subsequently nanobodies were detected by incubation for 1 hour with mouse anti-myc (9E10) antibody in 2% Marvell/PBS and after washing 1 hour with goat-anti-mouse-alexa-488 in 2% Marvell/PBS in the dark. After washing coverslips were mounted with 4 ul mowiol and let to dry for at least 30 minutes. Dry slides were stored at −20 C.

T1 sequence (P09619 33-532, change not shown): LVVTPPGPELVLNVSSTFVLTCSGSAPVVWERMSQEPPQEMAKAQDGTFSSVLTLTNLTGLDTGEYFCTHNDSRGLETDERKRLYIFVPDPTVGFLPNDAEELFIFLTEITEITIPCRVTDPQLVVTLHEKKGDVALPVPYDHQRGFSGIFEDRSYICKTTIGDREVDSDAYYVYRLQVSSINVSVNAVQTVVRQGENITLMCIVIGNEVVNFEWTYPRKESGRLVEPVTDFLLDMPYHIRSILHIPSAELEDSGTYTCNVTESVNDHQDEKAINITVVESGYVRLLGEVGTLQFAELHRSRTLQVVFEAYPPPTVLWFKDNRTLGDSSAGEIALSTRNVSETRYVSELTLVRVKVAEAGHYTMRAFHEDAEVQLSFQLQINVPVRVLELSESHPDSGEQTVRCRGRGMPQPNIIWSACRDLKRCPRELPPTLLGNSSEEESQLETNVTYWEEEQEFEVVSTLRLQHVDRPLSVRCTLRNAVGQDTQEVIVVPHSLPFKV
T3 sequence (P09619 33-1106): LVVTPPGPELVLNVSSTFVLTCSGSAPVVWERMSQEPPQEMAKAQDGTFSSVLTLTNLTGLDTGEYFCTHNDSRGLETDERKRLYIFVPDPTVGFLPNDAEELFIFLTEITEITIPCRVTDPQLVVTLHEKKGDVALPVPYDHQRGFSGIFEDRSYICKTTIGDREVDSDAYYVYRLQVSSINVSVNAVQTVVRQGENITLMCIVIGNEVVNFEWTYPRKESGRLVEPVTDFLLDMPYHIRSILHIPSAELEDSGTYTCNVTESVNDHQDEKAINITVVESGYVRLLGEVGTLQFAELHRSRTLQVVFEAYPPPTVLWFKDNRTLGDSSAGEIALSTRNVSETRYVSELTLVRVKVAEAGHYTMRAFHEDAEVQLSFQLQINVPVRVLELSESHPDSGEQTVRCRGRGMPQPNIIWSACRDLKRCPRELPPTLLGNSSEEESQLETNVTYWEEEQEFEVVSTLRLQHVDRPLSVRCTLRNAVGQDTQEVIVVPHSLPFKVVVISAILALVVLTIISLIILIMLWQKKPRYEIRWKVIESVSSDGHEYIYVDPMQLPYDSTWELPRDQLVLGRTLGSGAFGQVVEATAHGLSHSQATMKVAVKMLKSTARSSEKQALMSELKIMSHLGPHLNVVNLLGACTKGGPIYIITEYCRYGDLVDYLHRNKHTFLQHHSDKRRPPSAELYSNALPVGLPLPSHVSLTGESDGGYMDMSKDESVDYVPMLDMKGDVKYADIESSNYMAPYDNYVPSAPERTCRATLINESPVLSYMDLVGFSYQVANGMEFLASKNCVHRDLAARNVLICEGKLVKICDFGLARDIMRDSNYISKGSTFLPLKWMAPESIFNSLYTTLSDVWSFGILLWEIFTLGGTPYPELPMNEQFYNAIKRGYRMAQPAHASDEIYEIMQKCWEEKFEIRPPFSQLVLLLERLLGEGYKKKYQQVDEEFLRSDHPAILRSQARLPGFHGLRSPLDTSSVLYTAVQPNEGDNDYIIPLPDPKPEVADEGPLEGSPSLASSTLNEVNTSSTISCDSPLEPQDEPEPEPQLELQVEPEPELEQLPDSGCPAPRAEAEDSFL
Chain of dimeric VEGFR1/Fc chimera (R&D Systems Cat #321-FL) (P17948 27-758 limits assumed, change not shown): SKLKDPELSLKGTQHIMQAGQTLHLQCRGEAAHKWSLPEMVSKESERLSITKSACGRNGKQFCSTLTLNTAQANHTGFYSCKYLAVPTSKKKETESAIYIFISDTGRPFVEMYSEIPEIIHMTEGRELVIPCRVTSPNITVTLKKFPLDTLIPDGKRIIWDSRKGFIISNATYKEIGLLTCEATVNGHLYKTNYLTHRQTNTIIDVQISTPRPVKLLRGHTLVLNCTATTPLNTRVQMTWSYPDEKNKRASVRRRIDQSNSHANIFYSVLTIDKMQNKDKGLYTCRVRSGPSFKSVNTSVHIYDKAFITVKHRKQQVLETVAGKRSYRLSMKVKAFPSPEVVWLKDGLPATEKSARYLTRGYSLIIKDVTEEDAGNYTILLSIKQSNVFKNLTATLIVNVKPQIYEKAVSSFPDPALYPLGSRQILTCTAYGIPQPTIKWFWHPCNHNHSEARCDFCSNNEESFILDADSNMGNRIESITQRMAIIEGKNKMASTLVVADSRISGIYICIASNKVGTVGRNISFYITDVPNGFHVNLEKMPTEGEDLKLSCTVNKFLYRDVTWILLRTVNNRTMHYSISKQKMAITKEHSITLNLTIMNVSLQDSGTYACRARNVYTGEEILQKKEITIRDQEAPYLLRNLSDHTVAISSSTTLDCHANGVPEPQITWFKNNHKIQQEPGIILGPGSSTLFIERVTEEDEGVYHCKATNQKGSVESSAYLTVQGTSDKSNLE

B1: 42-H5 (VHH)
VHH: EVQLVESGGGLVQPGGSLTLSCAASGFTFSSYAMSWVRQAPGKGLELVSDINSGGISTYYADSVKGRFTISRDNAKNTLYLQMNSLKPEDTAVYYCKTDTLVAGTDDYWGQGTRVTVSS
notes: Purified Nanobody; Also used as negative control in the PDGFRβ assays
Does B1 bind [1]?
Result: no binding (tested: 50 nM)

B2: 46-F11 (VHH)
VHH: EVQLVESGGGLVQPGGSLRLSCAASGFTFSSYAMSWVRQAPGKELEWVSGINSGGDRTVNADSVKGRFTVSRDNAKNTLYLQMNSLKPEDTALYYCAKSIPPTDDRNYWGQGTQVTVSS
With B2 as the binder, how does the IC50 (read off the curve) [2] read?
The IC50 (read off the curve) was 1 nM.

B3: 73-G9 (VHH)
VHH: EVQLVESGGGLVQPGGSLKLSCAAAGFTFRPYAMGWFRQAPGKEREFVAAVATNVGTTFYQDSVKGRFTISRDNAKNTVYLQMNSLRPEDTAVYYCNTKLYSGIFREYWGQGTQVTVSS
notes: Purified Nanobody
B3 was tested. Which “IC50 (read off the curve)” value [3] did it give?
The value was roughly 10 nM.

B4: 53-G3 (VHH)
VHH: EVQLVESGGGLVQAGGSLRLSCAASRRTFSSYAMGWFRQAPGKEREIVADISWNGSRTYYADSAKGRFTISRDNAKNTVYLQMNSLKPEDTAVYYCAAALFGGLGRAPSTHEYAYWGQGTQVTVSS
notes: Purified Nanobody; Also used as negative control in the FGFR4 assays
Which results are given for B4?
binding result [4]: no binding; binding result [5]: binds; binding result (PDGFRb on HeLa cells): binds

B5: 53-B5 (VHH)
VHH: EVQLVESGGGLVQAGGSLRLSCAASRRTFSSYAMGWFRQAPGKEREVVADISWNGSRTYYADSAKGRFTISRDNAKNTVYLQMNSLKPEDTAVYYCAAALFGGLGRAPSTHEYAYWGQGTQVTVSS
notes: Purified Nanobody
Does B5 bind [5]?
Result: binds

Does B5 bind (PDGFRb on HeLa cells)?
Result: binds
